From article PMC11132685 come the findings set out here.

What all share (assay): SEC-MALS; purified NACHOs; oligomeric state; conditions not given
The target in test [1] is tetrabrachion-stabilised recombinant N2 NA (NACHO) of A/GAMBIA/G0071436/2012 (not stated | influenza A virus (H3N2) A/GAMBIA/G0071436/2012).
For test [2], the target named is tetrabrachion-stabilised recombinant N2 NA (NACHO) of A/ALASKA/251/2015 (not stated | influenza A virus (H3N2) A/ALASKA/251/2015).
Test [3] has as its target tetrabrachion-stabilised recombinant N2 NA (NACHO) of A/SWITZERLAND/9715293/2013 (not stated | influenza A virus (H3N2) A/SWITZERLAND/9715293/2013).
Test [4] addresses tetrabrachion-stabilised recombinant N2 NA (NACHO) of A/OHIO/62/2012 (not stated | influenza A virus (H3N2) A/OHIO/62/2012).
Test [5] deals with tetrabrachion-stabilised recombinant N2 NA (NACHO) of A/NAGANO/2153/2017 (not stated | influenza A virus (H3N2) A/NAGANO/2153/2017).
In test [6] the target is tetrabrachion-stabilised recombinant N2 NA (NACHO) of A/WISCONSIN/16/2015 (not stated | influenza A virus (H3N2) A/WISCONSIN/16/2015).
Test [7] concerns the target tetrabrachion-stabilised recombinant N2 NA (NACHO) of A/HOKKAIDO/10H079/2011 (not stated | influenza A virus (H3N2) A/HOKKAIDO/10H079/2011).
The target of test [8] is tetrabrachion-stabilised recombinant N2 NA (NACHO) of A/PERTH/16/2009 (not stated | influenza A virus (H3N2) A/PERTH/16/2009).
Test [9] concerns the target tetrabrachion-stabilised recombinant N2 NA (NACHO) of A/TASMANIA/1018/2015 (not stated | influenza A virus (H3N2) A/TASMANIA/1018/2015).
The target in test [10] is tetrabrachion-stabilised recombinant N2 NA (NACHO) of A/ONTARIO/RV3236/2016 (not stated | influenza A virus (H3N2) A/ONTARIO/RV3236/2016).
Test [11] addresses tetrabrachion-stabilised recombinant N2 NA (NACHO) of A/HELSINKI/941/2013 (not stated | influenza A virus (H3N2) A/HELSINKI/941/2013).
Test [12] concerns the target tetrabrachion-stabilised recombinant N2 NA (NACHO) of A/INDIANA/18/2017 (not stated | influenza A virus (H3N2) A/INDIANA/18/2017).
For test [13], the target named is tetrabrachion-stabilised recombinant N2 NA (NACHO) of A/UTAH/11/2011 (not stated | influenza A virus (H3N2) A/UTAH/11/2011).
The target of test [14] is tetrabrachion-stabilised recombinant N2 NA (NACHO) of A/OHIO/13/2017 (not stated | influenza A virus (H3N2) A/OHIO/13/2017).
The target in test [15] is tetrabrachion-stabilised recombinant N2 NA (NACHO) of A/INDIANA/08/2011 (not stated | influenza A virus (H3N2) A/INDIANA/08/2011).
Test [16] deals with tetrabrachion-stabilised recombinant N2 NA (NACHO) of A/XINJ…/1411/2012 (not stated | influenza A virus (H3N2) A/XINJ…/1411/2012).
Test [17] deals with tetrabrachion-stabilised recombinant N2 NA (NACHO) of A/HONGKONG/3089/2017 (not stated | influenza A virus (H3N2) A/HONGKONG/3089/2017).
Test [18] deals with tetrabrachion-stabilised recombinant N2 NA (NACHO) of A/STOCKHOLM/32/2014 (not stated | influenza A virus (H3N2) A/STOCKHOLM/32/2014).
In test [19] the target is tetrabrachion-stabilised recombinant N2 NA (NACHO) of A/HEILONGJIANGXIANGYANG/1134/2011 (not stated | influenza A virus (H3N2) A/HEILONGJIANGXIANGYANG/1134/2011).
Test [20] has as its target tetrabrachion-stabilised recombinant N2 NA (NACHO) of A/TEHRAN/996/2012 (not stated | influenza A virus (H3N2) A/TEHRAN/996/2012).
For test [21], the target named is tetrabrachion-stabilised recombinant N2 NA (NACHO) of A/HANOI/ELI15597/2015 (not stated | influenza A virus (H3N2) A/HANOI/ELI15597/2015).
Test [22] deals with tetrabrachion-stabilised recombinant N2 NA (NACHO) of A/DAKAR/14/2014 (not stated | influenza A virus (H3N2) A/DAKAR/14/2014).
In test [23] the target is tetrabrachion-stabilised recombinant N2 NA (NACHO) of A/POLAND/19B/2017 (not stated | influenza A virus (H3N2) A/POLAND/19B/2017).
Test [24] has as its target tetrabrachion-stabilised recombinant N2 NA (NACHO) of A/NEWCALEDONIA/23/2016 (not stated | influenza A virus (H3N2) A/NEWCALEDONIA/23/2016).
Test [25] has as its target tetrabrachion-stabilised recombinant N2 NA (NACHO) of A/ESTONIA/91621/2015 (not stated | influenza A virus (H3N2) A/ESTONIA/91621/2015).
For test [26], the target named is tetrabrachion-stabilised recombinant N2 NA (NACHO) of A/STOCKHOLM/15/2014 (not stated | influenza A virus (H3N2) A/STOCKHOLM/15/2014).
For test [27], the target named is tetrabrachion-stabilised recombinant N2 NA (NACHO) of A/PORTOALEGRE/LACENRS2376/2014 (not stated | influenza A virus (H3N2) A/PORTOALEGRE/LACENRS2376/2014).
Test [28] deals with tetrabrachion-stabilised recombinant N2 NA (NACHO) of A/MINNESOTA/11/2010 (not stated | influenza A virus (H3N2) A/MINNESOTA/11/2010).
For test [29], the target named is tetrabrachion-stabilised recombinant N2 NA (NACHO) of A/HELSINKI/823/2013 (not stated | influenza A virus (H3N2) A/HELSINKI/823/2013).

Usually stoichiometry N stands for a count of units in the complex or per binding partner. For the substance “tetrabrachion-stabilised recombinant N2 NA (NACHO) of A/GAMBIA/G0071436/2012 (enzyme)”, the stoichiometry N in [1] stood at 4.

On to “tetrabrachion-stabilised recombinant N2 NA (NACHO) of A/ALASKA/251/2015 (enzyme)”, for which, in [2], the stoichiometry N came to 4.

Turning to “tetrabrachion-stabilised recombinant N2 NA (NACHO) of A/SWITZERLAND/9715293/2013 (enzyme)”, the stoichiometry N in test [3] worked out at 4.

For the substance “tetrabrachion-stabilised recombinant N2 NA (NACHO) of A/OHIO/62/2012 (enzyme)”, the stoichiometry N in test [4] is 4.

Regarding “tetrabrachion-stabilised recombinant N2 NA (NACHO) of A/NAGANO/2153/2017 (enzyme)”, the stoichiometry N in test [5] worked out at 4.

Consider “tetrabrachion-stabilised recombinant N2 NA (NACHO) of A/WISCONSIN/16/2015 (enzyme)”, for which, in test [6], the stoichiometry N is 4.

As for “tetrabrachion-stabilised recombinant N2 NA (NACHO) of A/HOKKAIDO/10H079/2011 (enzyme)”, the stoichiometry N in test [7] is 4.

In the case of “tetrabrachion-stabilised recombinant N2 NA (NACHO) of A/PERTH/16/2009 (enzyme)”, the stoichiometry N in test [8] worked out at 4.

Take “tetrabrachion-stabilised recombinant N2 NA (NACHO) of A/TASMANIA/1018/2015 (enzyme)”: in test [9], the stoichiometry N was 4.

As to “tetrabrachion-stabilised recombinant N2 NA (NACHO) of A/ONTARIO/RV3236/2016 (enzyme)”, the stoichiometry N in [10] is 4.

With “tetrabrachion-stabilised recombinant N2 NA (NACHO) of A/HELSINKI/941/2013 (enzyme)”, the stoichiometry N in test [11] was determined as 4.

With “tetrabrachion-stabilised recombinant N2 NA (NACHO) of A/INDIANA/18/2017 (enzyme)”, the stoichiometry N in test [12] is 4.

“tetrabrachion-stabilised recombinant N2 NA (NACHO) of A/UTAH/11/2011 (enzyme)”: the stoichiometry N in test [13] was found to be 4.

With “tetrabrachion-stabilised recombinant N2 NA (NACHO) of A/OHIO/13/2017 (enzyme)”, the stoichiometry N in test [14] turned out to be 4.

Consider “tetrabrachion-stabilised recombinant N2 NA (NACHO) of A/INDIANA/08/2011 (enzyme)”, for which the stoichiometry N in test [15] turned out to be 4.

Consider “tetrabrachion-stabilised recombinant N2 NA (NACHO) of A/XINJ…/1411/2012 (enzyme)”, for which, in test [16], the stoichiometry N was 4.

Regarding “tetrabrachion-stabilised recombinant N2 NA (NACHO) of A/HONGKONG/3089/2017 (enzyme)”, in test [17], the stoichiometry N is 4.

For “tetrabrachion-stabilised recombinant N2 NA (NACHO) of A/STOCKHOLM/32/2014 (enzyme)”, the stoichiometry N in [18] came out at 4.

Take “tetrabrachion-stabilised recombinant N2 NA (NACHO) of A/HEILONGJIANGXIANGYANG/1134/2011 (enzyme)”: the stoichiometry N in test [19] was found to be 4.

Turning to “tetrabrachion-stabilised recombinant N2 NA (NACHO) of A/TEHRAN/996/2012 (enzyme)”, the stoichiometry N in test [20] is 4.

Regarding “tetrabrachion-stabilised recombinant N2 NA (NACHO) of A/HANOI/ELI15597/2015 (enzyme)”, the stoichiometry N in [21] came to 4.

As to “tetrabrachion-stabilised recombinant N2 NA (NACHO) of A/DAKAR/14/2014 (enzyme)”, the stoichiometry N in [22] came to 4.

Take “tetrabrachion-stabilised recombinant N2 NA (NACHO) of A/POLAND/19B/2017 (enzyme)”: the stoichiometry N in [23] worked out at 4.

In the case of “tetrabrachion-stabilised recombinant N2 NA (NACHO) of A/NEWCALEDONIA/23/2016 (enzyme)”, the stoichiometry N in [24] was found to be 4.

On to “tetrabrachion-stabilised recombinant N2 NA (NACHO) of A/ESTONIA/91621/2015 (enzyme)”, for which the stoichiometry N in [25] was 4.

“tetrabrachion-stabilised recombinant N2 NA (NACHO) of A/STOCKHOLM/15/2014 (enzyme)”: the stoichiometry N in test [26] is 4.

In the case of “tetrabrachion-stabilised recombinant N2 NA (NACHO) of A/PORTOALEGRE/LACENRS2376/2014 (enzyme)”, the stoichiometry N in [27] was found to be 4.

In the case of “tetrabrachion-stabilised recombinant N2 NA (NACHO) of A/MINNESOTA/11/2010 (enzyme)”, in [28], the stoichiometry N amounted to 4.

With “tetrabrachion-stabilised recombinant N2 NA (NACHO) of A/HELSINKI/823/2013 (enzyme)”, the stoichiometry N in test [29] stood at 4.
